Data taken from IntAct's records for PubMed 29039417.

B1: BBSome complex member BBS2 (Homo sapiens), Q9BXC9 (parent)
chain: MLLPVFTLKLRHKISPRMVAIGRYDGTHPCLAAATQTGKVFIHNPHTRNQHVSASRVFQSPLESDVSLLSINQAVSCLTAGVLNPELGYDALLVGTQTNLLAYDVYNNSDLFYREVADGANAIVLGTLGDISSPLAIIGGNCALQGFNHEGSDLFWTVTGDNVNSLALCDFDGDGKKELLVGSEDFDIRVFKEDEIVAEMTETEIVTSLCPMYGSRFGYALSNGTVGVYDKTSRYWRIKSKNHAMSIHAFDLNSDGVNELITGWSNGKVDARSDRTGEVIFKDNFSSAIAGVVEGDYRMDGHIQLICCSVDGEIRGYLPGTAEMRGNLMDTSAEQDLIRELSQKKQNLLLELRNYEENAKAELASPLNEADGHRGIIPANTRLHTTLSVSLGNETQTAHTELRISTSNDTIIRAVLIFAEGIFTGESHVVHPSIHNLSSSICIPIVPPKDVPVDLHLKAFVGYRSSTQFHVFESTRQLPRFSMYALTSLDPASEPISYVNFTIAERAQRVVVWLGQNFLLPEDTHIQNAPFQVCFTSLRNGGHLHIKIKLSGEITINTDDIDLAGDIIQSMASFFAIEDLQVEADFPVYFEELRKVLVKVDEYHSVHQKLSADMADHSNLIRSLLVGAEDARLMRDMKTMKSRYMELYDLNRDLLNGYKIRCNNHTELLGNLKAVNQAIQRAGRLRVGKPKNQVITACRDAIRSNNINTLFKIMRVGTASS
partner: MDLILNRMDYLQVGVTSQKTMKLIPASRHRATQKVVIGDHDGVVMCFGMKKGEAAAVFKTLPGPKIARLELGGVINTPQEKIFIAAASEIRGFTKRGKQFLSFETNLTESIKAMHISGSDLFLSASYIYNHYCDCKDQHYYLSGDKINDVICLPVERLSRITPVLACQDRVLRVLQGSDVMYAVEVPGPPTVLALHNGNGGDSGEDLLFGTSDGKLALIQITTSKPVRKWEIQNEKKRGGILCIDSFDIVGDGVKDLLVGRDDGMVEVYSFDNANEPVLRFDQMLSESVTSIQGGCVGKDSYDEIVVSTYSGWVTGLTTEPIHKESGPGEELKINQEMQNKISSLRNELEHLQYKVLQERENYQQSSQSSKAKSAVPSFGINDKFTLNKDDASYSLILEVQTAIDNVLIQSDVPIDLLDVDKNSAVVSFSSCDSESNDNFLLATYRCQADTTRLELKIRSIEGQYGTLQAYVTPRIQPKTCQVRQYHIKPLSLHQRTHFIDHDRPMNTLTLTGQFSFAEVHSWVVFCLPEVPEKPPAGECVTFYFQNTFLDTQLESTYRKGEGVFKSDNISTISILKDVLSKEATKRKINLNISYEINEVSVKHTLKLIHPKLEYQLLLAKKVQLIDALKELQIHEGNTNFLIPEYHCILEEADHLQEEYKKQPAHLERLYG

Variants of: B1
Settings: with BBS7, Q8IWZ6-2

Row | Variant | effect of a mutation on the interaction
1 | C534A | with no effect
2 | C534K | with no effect
3 | C534E | with no effect
4 | P530E | with no effect
5 | P530K | with no effect
6 | P530A | with no effect
7 | A529K | with no effect
8 | A529E | with no effect
9 | I526A | with no effect
10 | I526E | with no effect
11 | I526K | with no effect
12 | S537E | with no effect
13 | S537K | with no effect
14 | S537A | with no effect
15 | T536E | with no effect
16 | T536A | with no effect
17 | T536K | with no effect
18 | Q532A | disrupting interaction strength
19 | Q532K | with no effect

Row | Variant | effect of a mutation on the interaction
20 | Q532E | with no effect
21 | H525E | with no effect
22 | H525A | with no effect
23 | H525K | with no effect
24 | F531E | with no effect
25 | F531K | with no effect
26 | F531A | with no effect
27 | N528K | with no effect
28 | N528A | with no effect
29 | N528E | with no effect
30 | Q527K | with no effect
31 | Q527E | with no effect
32 | Q527A | with no effect
33 | F535E | with no effect
34 | F535A | with no effect
35 | F535K | disrupting interaction strength
36 | V533E | disrupting interaction strength
37 | V533A | with no effect
38 | V533K | with no effect

Now from value to variant:

Row | effect of a mutation on the interaction | Variant
39 | disrupting interaction strength | L538G
40 | with no effect | L538K
41 | with no effect | L538A
42 | disrupting interaction strength | L538R
43 | with no effect | L538E
44 | with no effect | I554A
45 | with no effect | K547A
46 | disrupting interaction strength | K547E
47 | disrupting interaction strength | H545K
48 | with no effect | H545E
49 | with no effect | H545A
50 | with no effect | I546A
51 | with no effect | I546K
52 | with no effect | I546E
53 | with no effect | L550A
54 | with no effect | L550K
55 | with no effect | L550E
56 | with no effect | H543E
57 | with no effect | H543A
58 | with no effect | H543K
59 | with no effect | N540K
60 | disrupting interaction strength | N540A
61 | with no effect | N540E
62 | with no effect | G552A
63 | with no effect | G552K

Row | effect of a mutation on the interaction | Variant
64 | with no effect | G552E
65 | disrupting interaction strength | G552R
66 | with no effect | I548A
67 | with no effect | I548K
68 | with no effect | I548E
69 | with no effect | G541E
70 | with no effect | G541K
71 | with no effect | G541A
72 | with no effect | G542K
73 | with no effect | G542E
74 | with no effect | G542A
75 | with no effect | S551K
76 | with no effect | S551A
77 | with no effect | S551E
78 | disrupting interaction strength | L544K
79 | disrupting interaction strength | L544S
80 | disrupting interaction strength | L544E
81 | with no effect | L544A
82 | with no effect | R539K
83 | with no effect | R539E
84 | with no effect | R539A
85 | with no effect | E553A
86 | with no effect | E553K
87 | with no effect | K549E
88 | with no effect | K549A
